Results: the nanobody polyreactivity screen of Harvey et al. (2022)

Test: yeast display, Sf9 membrane polyspecificity reagent, FACS + sequencing; frameworks hold sequencing errors
Method in brief: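 A nanobody's polyreactivity label depends on the gate it was sorted from. Yeast display cells were stained with 10% biotinylated, detergent-solubilized Sf9 membrane reagent for 1 hour at 4 °C, enriched on streptavidin microbeads and sorted by FACS. The low and high (top ~1%) gates were set on anti-HA fluorescence for expression and streptavidin fluorescence for reagent binding.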

Row | Sequence | polyreactivity (PSR sort gate)
1 | QVQLVESGGGLVQAGGSLRLSCAASGITFYDYAMGWYRQAPGKERELVAAISGGGITYYADSVKGRFTISRDNAKNTVYLQMNSLKPEDTAVYYCAAERYSPSVGYDYWGQGTQVTVSS | low polyreactivity
2 | QVQLVESGGGLVQAGGSLRLSCAASGYIFLAYAMGWYRQAPGKERELVADNTYADSVKGRFTISRDNAKNTVYLQMNSLKPEDTAVYYCNADEVYDEYSYDYWGQGTQVTVSS | low polyreactivity
3 | QVQLVESGGGLVQAGGSLRLSCAASGRIFRVNAMGWYRQAPGKERELVAAINFSGTSTYYADSVKGRFTISRDNAKNTVYLQMNSLKPEDTAVYYCNALTTSNSGRFYYWGQGTQVTVSS | low polyreactivity
4 | QFQLVESGGGLVQAGCSLRLSCAAYGSIFGGYAMGWYRQAPGKERELVAAISYRGASTYYADSVKGRFTISRDNAKNTVYLQMNILKPEDTAVYYCAVPARTRARVLYGYDYWGQGTQVTVSS | low polyreactivity
5 | QVQLVESGGGLVQAGGSLRISCAASGFIFQSNAMGWYRQAPGKERELVAAISWSGDNTYYADSVKGRFTISRDNAKNTVYLQMNSLKPEDTAVYYCAAVPYPSYYDTGYDYWGQGTQVTVSS | low polyreactivity
6 | QVQLVESGGGLVQAGGSLRLSCAASGSTFASNVMGWYRQAPGKERELVAAISRSGGNTYYADSVKGRFTISRDNAKNSVYLQMNSLKPEDTAVYYCAKYPFTRISYDYWGQGTQVTVSS | high polyreactivity
7 | QLQLVESGGGLLQAGGSLRLSCAASGSTFVSNAMGWYRQAPGKERELVATITTSGGSTYYADSVKGRFRNSRDNAKTTVYLQMNSLNPEDTAVYYCNAVYLFCYSGDLDYWGQGTQVTVSS | low polyreactivity
8 | QVQLVESGGGLVQAGGSLRLSCAASGRIPVNAMGWYRQAPVKERELVAAISVSGGSTNYADSVKGRFTISRDNAKNTVYLQMNSLKPEDTAVYYCNADPDWWYPYNYWGQGTQVTLSS | low polyreactivity
9 | QVQLVESGGGLVQAGGSLRLSCAASGRTFVGNAMGWYRQAPGKERELVAAITVNGVRTYYADSVKGRFTSSRDNAKNTVYLQMNSLKPEATAVYYCARDALHYAGSLHRYGYWGQGTQVTVSS | low polyreactivity
10 | QVQLVESGGGLVQAGGSLRLSCAASGSTIDTYAMGWYRLAPGKERELVAGISWSGGSTFYADSVKGRFTFSRDNAKNTVDLHMNSLKPEDTAVYYCAKQLWVGVKYDYWGQGTQVTVSS | low polyreactivity
11 | QVQLVESGGGLVQAGGSLRLSCAASGGTFDYNAMGWYRQAPGKERELVAAITSGASTYYADSVKGRFTISRDNAKNTVYLQMNSLKPEDTAVYYCAKGPTPGYDYWGQGTQVTVSS | low polyreactivity
12 | QVQLVESGGGLVQAGGSLRLSCAASGGISYRYAMGWYRQAPGKERELVARISRGTGTHYADSVKGRFTISRDNAKNTVYLQMNSLTPEDTAVYYCAAESYRGYYLSLNYWGQGTQVTVSS | high polyreactivity
13 | QVQLVESGVGLVQAGGSLRLSCAASGCIFIKYAMGWSRQAPGKERELVASITISSGRTYYADSVKGRFTISRDNAKNTVYLQMISLKPEDTAVYYCAAVSLWYSAYEYWGQGTQVTVSS | high polyreactivity
14 | QVQLVESGGGLVQAGGSLRLSCAASGSTFAYYDMGRYRPAPGKERELVAAITIDGRTSYADSVKGRFTISRDNAMNTVYLQMNSLKPEDTAVYYCNTEIRLSKYDYWGQGTQVTVSS | low polyreactivity
15 | QVQLVESGGGLVQAGGSLRLSCAASGSIFARYAMGWYRQAPGKEREFVAAITGRGGTTNYADSVKGRFTISRDNAKNTVYLQMNSLKPEDTAVYYCNARDRYREHDYWGQGTQVTVSS | high polyreactivity
16 | QVQLVESGGGLVQAGGSLRLSCAASGSTIYYNAMGWYRQAPGKERELVAAISKSSSRTYYADSVKGRFTISRDNAKYSVYLQMNSLKPEDTAVYYCAADAVYYHFDYWGQGTQVTVSS | high polyreactivity
17 | QVQIEESGGGLVQAGGSLRLSCAASGFIFVWYAMGWYRQAPGKERELVAAISRDGDTNYADSVKGRFTISRDNAKNTVYLQMNSLKPEDTAVDYCARTYIYSGRIYNYGYWGQGTQVTVSS | high polyreactivity
18 | QVQLVESGGGLVQAGGSLRVSCAASGSTFPSNAMGWYRQAPGKERELVATITSAGGGTYYADSVKGRFTISRDNAKNSVYLQMNSLKAEDTAVYYCNADGPAGDAFDYWGPGTQVTVSS | low polyreactivity
19 | QVQLVESGGGLVQAGGSLRLSCAASGRTFDPNVMGWYRQAPGKERELVAAISRGGSTYYADSVKGRFTISRDNAKNTVYLQMNSLKPEDTAVYYCAATHYGHSISYWFDYWGQGTQVTVSS | high polyreactivity
20 | QVQLVESGGGLVQAGGSLRLSCAASGRIFDYNTMGWSRQAPGKERELVAAITGGTGSTYYADSVKGRFTISRDNAKNTVYLQMNSLKPEDTAVYYCAAGFHKRVTPEILYDYWGQGTQVTVSS | low polyreactivity
21 | QVQLVESGGGLVQAGGSLRLISAASGFIFLFYAMGWYRQAPGKERELVAAISSGVSTNYADSVKGRFTISRDNAKNTVYLQMNCLKPEDTAVYYCTTTQSTSLLYDYWGPGTQVTVSS | low polyreactivity
22 | QVQLVESGGGLVQAGGSLRLSCAASGSIVGTYAMGWYRQAPGKERELVAAITWRGGNTYYADSVKGRFTISRDNAKNTVYLQMNSLKPEDTAVYYCAARGYKSSRRYYYWGQGTQVTVSS | high polyreactivity
